These results are taken from US20220153851A1 (Five Prime, published 2022).

Experiment [1] concerns the target T1, human CSF1R on CSF1R (SEQ ID NO: 2)-transfected CHO cells (human, UniProt P07333 20-972). Description: cell-based or functional assay.
In experiment [2] the target is T2, cynoCSF1R ECD-Fc (cynomolgus).
T2 construct: also called cynomolgus CSF1R ECD
Briefly: ELISA, plate coated with cynoCSF1R ECD-Fc. The procedure: (§1) Ninety-six well clear-bottom ELISA plates were coated overnight with 1 μg/ml recombinant hCSF1R ECD.506-Fc (SEQ ID NO: 6; FivePrime Therapeutics) or Human M-CSF R Fc Chimera (R&D Systems) in PBS. The next morning, wells were washed four times with 0.05% Tween20 in PBS (PBST) and blocked with Blocker-Blotto (Pierce). Fifty μl of 0.5× serial dilutions of the humanized antibody or parental chimeric antibody, beginning with 2000 ng/ml, diluted 1:1 in Blocker-Blotto were added to the CSF1R-coated wells. After incubation at room temperature (RT) for 90 min, wells were washed four times with PBST, and a 1:5000 dilution of a peroxidase-conjugated Goat anti-Human kappa Light chain antibody (Sigma) in Blocker-Blotto was added to each well. After incubation at RT for 60 min, wells were washed four times with PBST, and 50 μl o-phenylenediamine dihydrochloride peroxidase substrate (Sigma) was added to each well. After incubation at RT for 30 min, A450 values of each well were read directly on a SpectraMaxPlus spectrophotometer with SoftMaxPro software (Molecular Devices).
The binding curve for each humanized antibody binding to cynomolgus CSF1R ECD was determined as described above for human CSF1R, except the wells of the clear-bottom ELISA plates were coated overnight with 2 μg/ml recombinant cynoCSF1R ECD-Fc (FivePrime Therapeutics, SEQ ID NO: 8, but without the 19 amino acid leader sequence).
Background: In an ELISA, binding on a coated surface is turned into a signal by an enzyme label.

A further experiment deals with T3, hCSF1R ECD.506-Fc (human).
T3 construct: also called human CSF1R ECD-Fc fusion protein; human CSF1R ECD
Briefly: ELISA, plate coated with human CSF1R ECD-Fc. The procedure: as §1

Experiment [3] has as its target T2, cynoCSF1R ECD-Fc. Description: competition ELISA, blocking of human CSF1 binding to cynoCSF1R ECD-Fc. Here is the method:
The humanized antibodies, along with the parental chimeric antibodies (cAbs), were tested for their ability to block human CSF1 binding to human and cynomolgus CSF1R ECD, as follows.
Recombinant Human CSF1 (M-CSF; R&D Systems) was biotinylated using an NH₂-Biotin Labeling Kit (Dojindo Molecular Technologies). One hundred μl of 1 μg/ml biotinylated CSF1 in PBST/0.1% BSA was added to the wells of Reacti-Bind Streptavidin coated plates (Pierce) pre-blocked with SuperBlock blocking buffer (Pierce) according to the manufacturer's instructions. Fifty μl of 0.5× serial dilutions of the humanized antibody or parental chimeric antibody, beginning with 2000 ng/ml, was incubated with 50 ng/ml hCSF1R ECD.506-Fc (SEQ ID NO: 6; FivePrime Therapeutics) or 50 ng/ml cynoCSF1R ECD-Fc (FivePrime Therapeutics, SEQ ID NO: 8, but without the 19 amino acid leader sequence) in 100 μl PBST/0.1% BSA for 90 min at RT, after which the admix was transferred to one or more wells of a ligand-coated plate. After 90 min at RT, wells were washed with PBST, and a 1:5000 dilution of an Fc-fragment-specific peroxidase-conjugated goat anti-human IgG (Jackson Immuno Research) in PBST/0.1% BSA was added to each well. After incubation at RT for 60 min, wells were washed with PBST/0.1% BSA, and o-phenylenediamine dihydrochloride peroxidase substrate (Sigma) was added to each well. After incubation at RT for 30 min, A450 values of each well were read directly on a SpectraMaxPlus spectrophotometer with SoftMaxPro software (Molecular Devices).

The target in experiment [4] is T2, cynoCSF1R ECD-Fc. Briefly: competition ELISA, blocking of human IL34 binding to cynoCSF1R ECD-Fc.
Another experiment concerns the target T4, mCSF1R ECD-Fc (mouse).
T4 construct: also called mouse CSF1R ECD
Briefly: ELISA, plate coated with mCSF1R ECD-Fc, detection anti-human kappa-HRP, A450. Here is the method:
as §1
The binding curve for each humanized antibody binding to mouse CSF1R ECD was determined as described above for human CSF1R, except the wells of the clear-bottom ELISA plates were coated overnight with 2 μg/ml recombinant mCSF1R ECD-Fc (FivePrime Therapeutics, SEQ ID NO: 93).

Another experiment deals with T5, hCSF1R ECD.506 (human, UniProt P07333 20-506).
T5 construct: also called human CSF1R ECD
Briefly: SPR Biacore T100, antibody captured on anti-human IgG, hCSF1R ECD.506 as analyte, 1:1 model. The procedure: The kₐ, kd, and KD for binding to human CSF1R ECD was determined for each of the humanized antibodies as follows.
Binding kinetics of anti-CSF1R humanized antibodies to CSF1R ECD was determined using Biacore T100 Surface Plasmon Resonance (SPR) (GE Healthcare Life Sciences, Piscataway, N.Y.). Each of the humanized anti-CSF1R antibodies was captured on a CM5 sensor chip immobilized with anti-Human IgG antibody using the Human antibody capture kit (GE Healthcare Life Sciences, Piscataway, N.Y.) at 150 RU so that the Rmax value for hCSF1R ECD.506 (SEQ ID NO: 5) binding was 100 RU. Rmax values of less than 150 RU are recommended for accurately determining kinetic values. […] The association constant, dissociation constant, affinity, and binding capacity of each of the Fabs for human CSF1R ECD was calculated using the Biacore T100 Evaluation software package using the 1:1 binding model.

Experiment [5] deals with T1, human CSF1R on CSF1R (SEQ ID NO: …). Description: cell-based or functional assay. The source holds these as a separate data set.

B1: h0302-L2H2 (antibody, human IgG4 S228P, kappa, V domains shown)
VH: QVQLVQSGAEVKKPGSSVKVSCKASGYTFSDFNIHWVRQAPGQGLEWIGYINPYTDVTVYNEKFKGRATLTSDKSTSTAYMELSSLRSEDTAVYYCASYFDGTFDYALDYWGQGTLVTVSS
VL: EIVVTQSPATLSLSPGERATLSCRASESVDNYGLSFMNWFQQKPGQAPRLLIYTASNLESGIPARFSGSGSRTDFTLTISSLEPEDFAVYYCQQSKELPWTFGQGTKVEIKR
notes: also called Ab12; huAb 0302-L2H2
Usually EC50 stands for the midpoint of the concentration-response curve. A low value points to higher potency in that assay. As a reminder, the IC50 is the concentration needed to halve the response being measured. For orientation: Kd means the free concentration of one partner at which half of the binding sites on the other are occupied at equilibrium, for simple one-to-one binding. Higher therefore signals lower affinity. Broadly, the koff is a measure of how fast the partners let go of each other. Broadly, the kon is the second-order rate constant of association. High values mean fast association, low ones slow association. B1: in experiment [1], the “IC50, inhibition of CSF1-induced CSF1R phosphorylation (head prints 'Human CSF1/Human CSF1R ECD IC50')” value was 0.354 µg/mL and the “IC50, inhibition of IL34-induced CSF1R phosphorylation (head prints 'Human IL34/Human CSF1R ECD IC50')” value is 0.24 µg/mL. The same molecule returned an EC50 with cynoCSF1R ECD-Fc [2] of 0.018 µg/mL. In the experiment with hCSF1R ECD.506-Fc, this molecule returned an EC50 of 0.0101 µg/mL. For the same molecule, the IC50 with cynoCSF1R ECD-Fc [3] came out at 0.838 µg/mL. In the experiment with cynoCSF1R ECD-Fc [4], this molecule yielded an IC50 of 0.279 µg/mL. Also, the binding result with mCSF1R ECD-Fc is given as “no binding (tested: 2000 ng/ml)”. In the experiment with hCSF1R ECD.506, this molecule came in with a Kd of 0.46 nM, a koff of 0.00084 s⁻¹ and a kon of 1.84e+06 M⁻¹ s⁻¹.

B2: h0301-L0H0 (antibody, human IgG4 S228P, kappa)
heavy: not shown
light: EIVLTQSPATLSLSPGERATLSCKASQSVDYDGDNYMNWYQQKPGQAPRLLIYAASNLESGIPARFSGSGSGTDFTLTISSLEPEDFAVYYCHLSNEDLSTFGGGTKVEIKRTVAAPSVFIFPPSDEQLKSGTASVVCLLNNFYPREAKVQWKVDNALQSGNSQESVTEQDSKDSTYSLSSTLTLSKADYEKHKVYACEVTHQGLSSPVTKSFNRGEC
notes: also called Ab1; huAb 0301-L0H0
For the molecule B2, in experiment [1], the “IC50, inhibition of CSF1-induced CSF1R phosphorylation (head prints 'Human CSF1/Human CSF1R ECD IC50')” value was found to be 1.03 µg/mL and the “IC50, inhibition of IL34-induced CSF1R phosphorylation (head prints 'Human IL34/Human CSF1R ECD IC50')” value is 0.433 µg/mL. In experiment [5], the “CSF1 blocking IC50 (ligand-induced CSF1R phosphorylation in CHO cells)” value was 0.305 µg/mL and the “IL34 blocking IC50 (ligand-induced CSF1R phosphorylation in CHO cells)” value turned out to be 0.341 µg/mL. For the same molecule, it took 0.0151 µg/mL to reach a half-maximal effect with cynoCSF1R ECD-Fc [2] (EC50). The EC50 with hCSF1R ECD.506-Fc came out at 0.0134 µg/mL. In the experiment with cynoCSF1R ECD-Fc [3], the IC50 came to 0.0276 µg/mL. The IC50 with cynoCSF1R ECD-Fc [4] amounted to 0.0359 µg/mL. The binding result with mCSF1R ECD-Fc is “no binding (tested: 2000 ng/ml)”. In the experiment with hCSF1R ECD.506, this molecule gave a Kd of 0.35 nM, a koff of 0.00111 s⁻¹ and a kon of 3.22e+06 M⁻¹ s⁻¹.

B3: h0301-L1H0 (antibody, human IgG4 S228P, kappa)
heavy: not shown
light: NIVLTQSPATLSLSPGERATLSCKASQSVDYDGDNYMNWYQQKPGQAPRLLIYAASNLESGIPARFSGSGSGTDFTLTISSLEPEDFAVYYCHLSNEDLSTFGGGTKVEIKRTVAAPSVFIFPPSDEQLKSGTASVVCLLNNFYPREAKVQWKVDNALQSGNSQESVTEQDSKDSTYSLSSTLTLSKADYEKHKVYACEVTHQGLSSPVTKSFNRGEC
notes: also called Ab4; huAb 0301-L1H0
For B3, in experiment [1], the “IC50, inhibition of CSF1-induced CSF1R phosphorylation (head prints 'Human CSF1/Human CSF1R ECD IC50')” value worked out at 6.15 µg/mL and the “IC50, inhibition of IL34-induced CSF1R phosphorylation (head prints 'Human IL34/Human CSF1R ECD IC50')” value is 0.378 µg/mL. For the same molecule, in experiment [5], the “CSF1 blocking IC50 (ligand-induced CSF1R phosphorylation in CHO cells)” value worked out at 0.213 µg/mL and the “IL34 blocking IC50 (ligand-induced CSF1R phosphorylation in CHO cells)” value turned out to be 0.242 µg/mL. Further, the response in the experiment with cynoCSF1R ECD-Fc [2] was half-maximal at 0.0119 µg/mL (EC50). For the same molecule, the EC50 with hCSF1R ECD.506-Fc was 0.0134 µg/mL. The molecule also yielded an IC50 with cynoCSF1R ECD-Fc [3] of 0.0255 µg/mL. The IC50 with cynoCSF1R ECD-Fc [4] amounted to 0.0348 µg/mL. In addition, the binding result with mCSF1R ECD-Fc is reported as “no binding (tested: 2000 ng/ml)”. In the experiment with hCSF1R ECD.506, this molecule had a Kd of 0.35 nM, a koff of 0.00115 s⁻¹ and a kon of 3.29e+06 M⁻¹ s⁻¹.
